{"source": "patent US20220251204A1", "about": "(AstraZeneca / MedImmune, published 2022)", "binders": {"B1": {"name": "PD-1/CTLA-4 DuetMab (bispecific antibody, human IgG1, kappa, lambda)", "heavy 1": "EVQLVESGGGLVQPGGSLRLSCAASGFTFSDYGMHWVRQAPGKGLEWVAYISSGSYTIYSADSVKGRFTISRDNAKNSLYLQMNSLRAEDTAVYYCARRAPNSFYEYYFDYWGQGTTVTVSSASTKGPSVFPLAPSSKSTSGGTAALGCLVKDYFPEPVTVSWNSGALTSGVHTFPAVLQSSGLYSLSSVVTVPSSSLGTQTYICNVNHKPSNTKVDKRVEPKSCDKTHTCPPCPAPEFEGGPSVFLFPPKPKDTLMISRTPEVTCVVVDVSHEDPEVKFNWYVDGVEVHNAKTKPREEQYNSTYRVVSVLTVLHQDWLNGKEYKCKVSNKALPASIEKTISKAKGQPREPQVCTLPPSREEMTKNQVSLSCAVKGFYPSDIAVEWESNGQPENNYKTTPPVLDSDGSFFLVSKLTVDKSRWQQGNVFSCSVMHEALHNHYTQKSLSLSPGK", "light 1": "QIVLTQSPATLSLSPGERATLSCSASSKHTNLYWSRHMYWYQQKPGQAPRLLIYLTSNRATGIPARFSGSGSGTDFTLTISSLEPEDFAVYYCQQWSSNPFTFGQGTKLEIKRTVAAPSVFIFPPSDEQLKSGTASVVCLLNNFYPREAKVQWKVDNALQSGNSQESVTEQDSKDSTYSLSSTLTLSKADYEKHKVYACEVTHQGLSSPVTKSFNRGEC", "heavy 2": "not shown", "light 2": "DIQMTQSPSSLSASVGDRVTITCRASQSINSYLDWYQQKPGKAPKLLIYAASSLQSGVPSRFSGSGSGTDFTLTISSLQPEDFATYYCQQYYSTPFTFGPGTKVEIKGQPKAAPSVTLFPPCSEELQANKATLVCLISDFYPGAVTVAWKADSSPVKAGVETTTPSKQSNNKYAASSYLSLTPEQWKSHRSYSCQVTHEGSTVEKTVAPTEVS", "notes": "also called DuetMab PD-1/CTLA-4; PD-1/CTLA-4 DuetMab bispecific antibody; copies: 1 + 1 + 1 + 1"}}, "key": {"[1]": {"target": "T1, human PD-1 expressed on cells (human, UniProt Q15116 25-288)", "T1 sequence (Q15116 25-288 limits assumed)": "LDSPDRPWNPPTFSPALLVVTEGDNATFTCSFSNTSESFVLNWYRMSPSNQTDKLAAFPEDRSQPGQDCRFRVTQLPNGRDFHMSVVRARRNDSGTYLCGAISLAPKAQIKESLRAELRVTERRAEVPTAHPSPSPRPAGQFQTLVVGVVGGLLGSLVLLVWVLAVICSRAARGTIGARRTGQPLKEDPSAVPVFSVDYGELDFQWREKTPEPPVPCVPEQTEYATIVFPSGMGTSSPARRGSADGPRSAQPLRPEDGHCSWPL", "assay": "cell-based or functional assay"}, "[2]": {"target": "T2, human CTLA-4 expressed on cells (human, UniProt P16410 36-223)", "T2 sequence": "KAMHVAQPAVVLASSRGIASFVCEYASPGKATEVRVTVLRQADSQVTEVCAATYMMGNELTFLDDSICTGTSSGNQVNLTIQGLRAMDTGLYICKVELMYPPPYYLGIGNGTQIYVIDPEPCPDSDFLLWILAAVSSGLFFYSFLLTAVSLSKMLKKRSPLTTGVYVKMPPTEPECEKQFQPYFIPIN", "assay": "cell-based or functional assay"}, "[3]": {"target": "T2, human CTLA-4 expressed on cells", "assay": "receptor occupancy on CHO cells, flow cytometry"}, "[4]": {"target": "T1, human PD-1 expressed on cells", "assay": "flow cytometry, CHO cells expressing PD-1 only"}, "[5]": {"target": "T2, human CTLA-4 expressed on cells", "assay": "flow cytometry, CHO cells expressing CTLA-4 only"}, "[6]": {"target": "T2, human CTLA-4 expressed on cells", "assay": "receptor occupancy on CHO cells expressing excess PD-1, flow cytometry"}, "cynomolgus PD-1": {"target": "T3, cynomolgus PD-1 (cynomolgus, UniProt B0LAJ3 25-170)", "T3 construct": "also called cyno PD1", "T3 sequence (B0LAJ3 entry or part of it limits assumed)": "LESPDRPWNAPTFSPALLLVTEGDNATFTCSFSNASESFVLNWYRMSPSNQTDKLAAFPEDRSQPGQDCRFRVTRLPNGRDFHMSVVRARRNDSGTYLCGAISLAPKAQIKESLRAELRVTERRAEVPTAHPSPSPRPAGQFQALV", "assay": "SPR, BIAcore T200; antibody captured on mouse anti-huIgG-Fab, antigen injected", "protocol": "(§1) Binding experiments were carried out using a BIAcore T200 instrument (BIAcore). To capture the antibody, mouse anti-huIgG-Fab was immobilized on a CM5 chip to a target response of 2000 RU. 100 nM of the DuetMab or mAbs were flowed at 20 μL/min for 5 min to achieve approximately 100 response units of captured antibody. Antigen were then injected serially at a flow rate of 50 μl/min for 5 min. Kinetic parameters (kₒₙ and koff) and dissociation constant (KD) were calculated from a non-linear fit using BIAevaluation 4.1 software."}, "mouse PD-1": {"target": "T4, mouse PD-1 (mouse, UniProt Q02242 25-167)", "T4 construct": "also called mu PD1", "T4 sequence (looked up)": "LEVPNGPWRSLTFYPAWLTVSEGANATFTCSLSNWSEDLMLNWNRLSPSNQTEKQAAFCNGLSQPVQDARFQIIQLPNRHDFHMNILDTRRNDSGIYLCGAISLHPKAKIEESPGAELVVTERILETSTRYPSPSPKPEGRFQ", "assay": "SPR, BIAcore T200; antibody captured on mouse anti-huIgG-Fab, antigen injected", "protocol": "as §1"}, "[7]": {"target": "T5, human CTLA-4 antigen (soluble) (human, UniProt P16410 36-161)", "T5 construct": "also called hu CTLA4; soluble CTLA-4 antigen", "T5 sequence": "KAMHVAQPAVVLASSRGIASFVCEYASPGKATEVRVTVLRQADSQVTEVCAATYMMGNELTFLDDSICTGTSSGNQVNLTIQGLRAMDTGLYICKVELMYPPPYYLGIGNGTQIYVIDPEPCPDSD", "assay": "SPR, BIAcore T200; antibody captured on mouse anti-huIgG-Fab, antigen injected", "protocol": "as §1"}, "cynomolgus CTLA-4": {"target": "T6, cynomolgus CTLA-4 (cynomolgus, UniProt G7PL88 36-161)", "T6 construct": "also called cyno CTLA4", "T6 sequence": "T5 sequence with S14N, I18T, L106M", "assay": "SPR, BIAcore T200; antibody captured on mouse anti-huIgG-Fab, antigen injected", "protocol": "as §1"}, "[8]": {"target": "T7, human PD-1 antigen (soluble) (human, UniProt Q15116 25-170)", "T7 construct": "also called hu PD1; Biotinylated human PD-1", "T7 sequence (Q15116 25-170 limits assumed)": "as the sequence (B0LAJ3 entry or part of it limits assumed) above, with E2D, A10P, L19V, A35T, R75Q, A144T counted along it", "assay": "SPR, BIAcore T200; antibody captured on mouse anti-huIgG-Fab, antigen injected", "protocol": "as §1"}, "[9]": {"target": "T2, human CTLA-4 expressed on cells", "assay": "flow cytometry receptor occupancy, CHO cells expressing CTLA-4 only; free CTLA-4 detected with labeled anti-CTLA-4 mAb"}, "[10]": {"target": "T1, human PD-1 expressed on cells", "assay": "flow cytometry receptor occupancy, CHO cells expressing PD-1:CTLA-4 (10:1); free PD-1 detected with labeled anti-PD-1 mAb"}, "[11]": {"target": "T1, human PD-1 expressed on cells", "assay": "flow cytometry receptor occupancy, CHO cells expressing PD-1:CTLA-4 (40:1); free PD-1 detected with labeled anti-PD-1 mAb"}, "[12]": {"target": "T2, human CTLA-4 expressed on cells", "assay": "flow cytometry receptor occupancy, CHO cells expressing PD-1:CTLA-4 (10:1); free CTLA-4 detected with labeled anti-CTLA-4 mAb"}, "[13]": {"target": "T2, human CTLA-4 expressed on cells", "assay": "flow cytometry receptor occupancy, CHO cells expressing PD-1:CTLA-4 (40:1); free CTLA-4 detected with labeled anti-CTLA-4 mAb"}, "[14]": {"target": "T2, human CTLA-4 expressed on cells", "assay": "flow cytometry receptor occupancy, CHO cells expressing PD-1:CTLA-4 (10:1); free CTLA-4 detected with labeled anti-CTLA-4 mAb", "remark": "listed apart in the source"}, "[15]": {"target": "T2, human CTLA-4 expressed on cells", "assay": "flow cytometry receptor occupancy, CHO cells expressing PD-1:CTLA-4 (40:1); free CTLA-4 detected with labeled anti-CTLA-4 mAb", "remark": "listed apart in the source"}}, "note": "Where a chain is given by its changes, count along the chain named."}
{"binder": "B1", "values": [{"measurement": "fold decrease in PD-1 reporter gene assay, potency", "setting": "[1]", "result": "~9", "unit": "fold"}, {"measurement": "fold decrease in CTLA-4 reporter gene assay, potency", "setting": "[2]", "result": "~16", "unit": "fold"}, {"measurement": "fold lower concentration to saturate CTLA-4, against cells expressing only CTLA-4", "setting": "[3]", "result": "~500", "unit": "fold"}, {"measurement": "EC50 (read off the curve)", "setting": "[4]", "result": "~4", "unit": "nM"}, {"measurement": "EC50 (read off the curve)", "setting": "[5]", "result": "~4", "unit": "nM"}, {"measurement": "fold lower concentration to saturate CTLA-4, against a combination of the monoclonal antibodies", "setting": "[6]", "result": "~250", "unit": "fold"}, {"measurement": "Kd", "setting": "cynomolgus PD-1", "result": 0.44, "unit": "nM"}, {"measurement": "koff", "setting": "cynomolgus PD-1", "result": 0.000215, "unit": "s⁻¹"}, {"measurement": "kon", "setting": "cynomolgus PD-1", "result": 490000, "unit": "M⁻¹ s⁻¹"}, {"measurement": "Kd", "setting": "mouse PD-1", "result": 496, "unit": "nM"}, {"measurement": "koff", "setting": "mouse PD-1", "result": 0.0693, "unit": "s⁻¹"}, {"measurement": "kon", "setting": "mouse PD-1", "result": 140000, "unit": "M⁻¹ s⁻¹"}, {"measurement": "Kd", "setting": "[7]", "result": 0.62, "unit": "nM"}, {"measurement": "koff", "setting": "[7]", "result": 0.000421, "unit": "s⁻¹"}, {"measurement": "kon", "setting": "[7]", "result": 684000, "unit": "M⁻¹ s⁻¹"}, {"measurement": "Kd", "setting": "cynomolgus CTLA-4", "result": 0.55, "unit": "nM"}, {"measurement": "koff", "setting": "cynomolgus CTLA-4", "result": 0.000634, "unit": "s⁻¹"}, {"measurement": "kon", "setting": "cynomolgus CTLA-4", "result": "1.14e+06", "unit": "M⁻¹ s⁻¹"}, {"measurement": "Kd", "setting": "[8]", "result": 0.81, "unit": "nM"}, {"measurement": "koff", "setting": "[8]", "result": 0.000236, "unit": "s⁻¹"}, {"measurement": "kon", "setting": "[8]", "result": 295000, "unit": "M⁻¹ s⁻¹"}, {"measurement": "IC50", "setting": "[9]", "result": 4.6, "unit": "nM"}, {"measurement": "IC50", "setting": "[10]", "result": 12.2, "unit": "nM"}, {"measurement": "IC50", "setting": "[11]", "result": 14.4, "unit": "nM"}, {"measurement": "IC50", "setting": "[12]", "result": 0.38, "unit": "nM"}, {"measurement": "IC50", "setting": "[13]", "result": 0.01, "unit": "nM"}, {"measurement": "IC50", "setting": "[14]", "result": 0.38, "unit": "nM"}, {"measurement": "IC50", "setting": "[15]", "result": 0.01, "unit": "nM"}]}
